# Measured values reported in publication doi:10.1101/2021.01.28.428610.
# Target: Cg1978-C-His (Gip with a C-terminal His tag) (Corynebacterium glutamicum ATCC 13032 (CGP3 prophage))
# Assay: SPR
substance,measurement,value
GyrA-N-Strep (C. glutamicum DNA gyrase subunit A with an N-terminal Strep-tag) (from UniProt Q8NUC6 1-856) (natural protein),Kd,5.4 nM
same,koff,0.00092 s⁻¹
same,kon,97000 M⁻¹ s⁻¹
